Test results reported in the supplement of paper PMC9112550, “Optimization of the antimicrobial peptide Bac7 by deep mutational scanning” (BMC Biology, 2022).
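Note: peptides expressed intracellularly from a pBAD plasmid library in pooled LB shake-flask culture, induced with 0.3% L-arabinose, DNA abundance read by NGS, three biological replicates, DESeq2 with apeglm shrinkage.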

The sequences below were run on Escherichia coli TOP10 (assay: shrunken log2 fold change of peptide-encoding DNA abundance (4.5 h post-induction vs induction); higher = less antimicrobial activity (less host growth inhibition)). Details: time post-induction: 4.5 h; library: site-saturation at positions 5, 18, 19, 20.
RRIRRRPPRLPRPRPRPQMTPRP was tested, and the “shrunken log2 fold change” value was 0.238. RRIRTRPPRLPRPRPRPDCEPRP was tested, and the “shrunken log2 fold change” value was 0.0084. For RRIRRRPPRLPRPRPRPENEPRP, the “shrunken log2 fold change” value was 0.119. For RRIRMRPPRLPRPRPRPFQKPRP, the “shrunken log2 fold change” value was -0.00623. RRIRFRPPRLPRPRPRPDNGPRP was tested, and the “shrunken log2 fold change” value was -0.13. In the case of RRIRARPPRLPRPRPRPWFQPRP, the “shrunken log2 fold change” value is reported as 0.0762. For RRIRRRPPRLPRPRPRPDKIPRP, the “shrunken log2 fold change” value was 0.402. In the case of RRIRFRPPRLPRPRPRPADDPRP, the “shrunken log2 fold change” value is reported as -0.053. In the case of RRIRSRPPRLPRPRPRPSQTPRP, the “shrunken log2 fold change” value is reported as -0.128. In the case of RRIRARPPRLPRPRPRPFIWPRP, the “shrunken log2 fold change” value is reported as 0.00679. In the case of RRIRWRPPRLPRPRPRPEQGPRP, the “shrunken log2 fold change” value is reported as -0.00277. For RRIRLRPPRLPRPRPRPTTHPRP, the “shrunken log2 fold change” value was -0.102. RRIRRRPPRLPRPRPRPDDYPRP was tested, and the “shrunken log2 fold change” value was -0.377. RRIRVRPPRLPRPRPRPPEYPRP was tested, and the “shrunken log2 fold change” value was -0.225. For RRIRMRPPRLPRPRPRPEEQPRP, the “shrunken log2 fold change” value was -0.00184. In the case of RRIRMRPPRLPRPRPRPTPKPRP, the “shrunken log2 fold change” value is reported as 0.107. With RRIRRRPPRLPRPRPRPHVGPRP the “shrunken log2 fold change” value was 0.0734. In the case of RRIRVRPPRLPRPRPRPWYIPRP, the “shrunken log2 fold change” value is reported as -0.0193. In the case of RRIRVRPPRLPRPRPRPAMHPRP, the “shrunken log2 fold change” value is reported as 0.0999. RRIRWRPPRLPRPRPRPDIMPRP was tested, and the “shrunken log2 fold change” value was 0.0439. In the case of RRIRWRPPRLPRPRPRPQNMPRP, the “shrunken log2 fold change” value is reported as -0.0938. With RRIRMRPPRLPRPRPRPNYQPRP the “shrunken log2 fold change” value was -0.23. With RRIRKRPPRLPRPRPRPGIHPRP the “shrunken log2 fold change” value was 0.149. In the case of RRIRSRPPRLPRPRPRPWMCPRP, the “shrunken log2 fold change” value is reported as -0.391. With RRIRHRPPRLPRPRPRPFGMPRP the “shrunken log2 fold change” value was -0.0621. RRIRERPPRLPRPRPRPIKTPRP was tested, and the “shrunken log2 fold change” value was -0.139. RRIRYRPPRLPRPRPRPNIIPRP was tested, and the “shrunken log2 fold change” value was -1.01. In the case of RRIRWRPPRLPRPRPRPLMLPRP, the “shrunken log2 fold change” value is reported as -0.0143. With RRIRLRPPRLPRPRPRPAGRPRP the “shrunken log2 fold change” value was 0.0831. RRIRGRPPRLPRPRPRPANHPRP was tested, and the “shrunken log2 fold change” value was 0.0248. RRIRKRPPRLPRPRPRPSNNPRP was tested, and the “shrunken log2 fold change” value was -0.0375. With RRIRQRPPRLPRPRPRPRMGPRP the “shrunken log2 fold change” value was -0.0719. RRIRWRPPRLPRPRPRPRRVPRP was tested, and the “shrunken log2 fold change” value was 0.122. With RRIRLRPPRLPRPRPRPAPDPRP the “shrunken log2 fold change” value was 0.215. RRIRFRPPRLPRPRPRPVVTPRP was tested, and the “shrunken log2 fold change” value was -0.756. For RRIRARPPRLPRPRPRPKKDPRP, the “shrunken log2 fold change” value was 0.468. With RRIRTRPPRLPRPRPRPKEIPRP the “shrunken log2 fold change” value was -1.03. In the case of RRIRPRPPRLPRPRPRPFVCPRP, the “shrunken log2 fold change” value is reported as -0.395. RRIRQRPPRLPRPRPRPSSTPRP was tested, and the “shrunken log2 fold change” value was -0.215. RRIRLRPPRLPRPRPRPYPMPRP was tested, and the “shrunken log2 fold change” value was 0.00832. RRIRSRPPRLPRPRPRPFCDPRP was tested, and the “shrunken log2 fold change” value was -0.353. In the case of RRIRNRPPRLPRPRPRPKRWPRP, the “shrunken log2 fold change” value is reported as 0.0633. With RRIRMRPPRLPRPRPRPHKIPRP the “shrunken log2 fold change” value was -0.188. In the case of RRIRSRPPRLPRPRPRPMGCPRP, the “shrunken log2 fold change” value is reported as -0.112. RRIRYRPPRLPRPRPRPHSRPRP was tested, and the “shrunken log2 fold change” value was -0.103. RRIRNRPPRLPRPRPRPEQDPRP was tested, and the “shrunken log2 fold change” value was 0.0235. In the case of RRIRWRPPRLPRPRPRPNTVPRP, the “shrunken log2 fold change” value is reported as 0.178. RRIRIRPPRLPRPRPRPRCPPRP was tested, and the “shrunken log2 fold change” value was 0.0321. With RRIRWRPPRLPRPRPRPNAWPRP the “shrunken log2 fold change” value was 0.826. RRIRKRPPRLPRPRPRPIWVPRP was tested, and the “shrunken log2 fold change” value was 0.00396. In the case of RRIRCRPPRLPRPRPRPDDLPRP, the “shrunken log2 fold change” value is reported as -0.118. For RRIRPRPPRLPRPRPRPMCHPRP, the “shrunken log2 fold change” value was -0.22. For RRIRTRPPRLPRPRPRPECKPRP, the “shrunken log2 fold change” value was 0.165. For RRIRARPPRLPRPRPRPCPHPRP, the “shrunken log2 fold change” value was -0.329. For RRIRIRPPRLPRPRPRPTPMPRP, the “shrunken log2 fold change” value was -0.102. With RRIRFRPPRLPRPRPRPVPSPRP the “shrunken log2 fold change” value was -0.162. In the case of RRIRSRPPRLPRPRPRPWIMPRP, the “shrunken log2 fold change” value is reported as -0.572. In the case of RRIRCRPPRLPRPRPRPLACPRP, the “shrunken log2 fold change” value is reported as -0.236. RRIRHRPPRLPRPRPRPQTAPRP was tested, and the “shrunken log2 fold change” value was 0.00296. RRIRGRPPRLPRPRPRPPACPRP was tested, and the “shrunken log2 fold change” value was 1.36. For RRIRTRPPRLPRPRPRPQDWPRP, the “shrunken log2 fold change” value was 0.209. RRIRFRPPRLPRPRPRPINNPRP was tested, and the “shrunken log2 fold change” value was -0.683. For RRIRLRPPRLPRPRPRPKTMPRP, the “shrunken log2 fold change” value was 0.0334. With RRIRSRPPRLPRPRPRPSEIPRP the “shrunken log2 fold change” value was 0.0398. For RRIRTRPPRLPRPRPRPQGIPRP, the “shrunken log2 fold change” value was 0.0112. RRIRHRPPRLPRPRPRPMGGPRP was tested, and the “shrunken log2 fold change” value was 0.0348. RRIRLRPPRLPRPRPRPSYEPRP was tested, and the “shrunken log2 fold change” value was -0.496. For RRIRMRPPRLPRPRPRPFPSPRP, the “shrunken log2 fold change” value was -0.18. For RRIRNRPPRLPRPRPRPCKPPRP, the “shrunken log2 fold change” value was -0.0414. With RRIRYRPPRLPRPRPRPMWAPRP the “shrunken log2 fold change” value was -0.0298. For RRIRIRPPRLPRPRPRPHKVPRP, the “shrunken log2 fold change” value was -0.0742. With RRIRIRPPRLPRPRPRPKMEPRP the “shrunken log2 fold change” value was -0.103. RRIRMRPPRLPRPRPRPAKIPRP was tested, and the “shrunken log2 fold change” value was 0.211. For RRIRLRPPRLPRPRPRPWTKPRP, the “shrunken log2 fold change” value was -0.139. With RRIRVRPPRLPRPRPRPEHIPRP the “shrunken log2 fold change” value was -0.0362. RRIRTRPPRLPRPRPRPEAKPRP was tested, and the “shrunken log2 fold change” value was -0.0276. For RRIRWRPPRLPRPRPRPRMHPRP, the “shrunken log2 fold change” value was 0.485. With RRIRYRPPRLPRPRPRPTMHPRP the “shrunken log2 fold change” value was -0.484. RRIRIRPPRLPRPRPRPAQWPRP was tested, and the “shrunken log2 fold change” value was 0.211. With RRIRRRPPRLPRPRPRPTMIPRP the “shrunken log2 fold change” value was -0.195. In the case of RRIRERPPRLPRPRPRPFVPPRP, the “shrunken log2 fold change” value is reported as -0.507. In the case of RRIRFRPPRLPRPRPRPENEPRP, the “shrunken log2 fold change” value is reported as 0.15. For RRIRVRPPRLPRPRPRPTVNPRP, the “shrunken log2 fold change” value was -0.171. RRIRTRPPRLPRPRPRPDMNPRP was tested, and the “shrunken log2 fold change” value was -0.0432. With RRIRWRPPRLPRPRPRPRYLPRP the “shrunken log2 fold change” value was -0.382. With RRIRWRPPRLPRPRPRPWDWPRP the “shrunken log2 fold change” value was 0.00466. RRIRKRPPRLPRPRPRPWVQPRP was tested, and the “shrunken log2 fold change” value was 0.0916. RRIRVRPPRLPRPRPRPWRMPRP was tested, and the “shrunken log2 fold change” value was 0.077. For RRIRCRPPRLPRPRPRPFHVPRP, the “shrunken log2 fold change” value was -0.893. With RRIRARPPRLPRPRPRPVITPRP the “shrunken log2 fold change” value was -0.021. For RRIRLRPPRLPRPRPRPDETPRP, the “shrunken log2 fold change” value was -0.0184. With RRIRGRPPRLPRPRPRPAEQPRP the “shrunken log2 fold change” value was 1.25. With RRIRMRPPRLPRPRPRPKHVPRP the “shrunken log2 fold change” value was 0.0503. RRIRWRPPRLPRPRPRPFWVPRP was tested, and the “shrunken log2 fold change” value was 0.00637. In the case of RRIRLRPPRLPRPRPRPHRRPRP, the “shrunken log2 fold change” value is reported as 0.0082. For RRIRIRPPRLPRPRPRPPMVPRP, the “shrunken log2 fold change” value was -0.572. In the case of RRIRARPPRLPRPRPRPWLQPRP, the “shrunken log2 fold change” value is reported as -0.0599. For RRIRIRPPRLPRPRPRPTDKPRP, the “shrunken log2 fold change” value was -0.406. RRIRIRPPRLPRPRPRPTRFPRP was tested, and the “shrunken log2 fold change” value was 0.04. With RRIRTRPPRLPRPRPRPSKWPRP the “shrunken log2 fold change” value was -0.0672. In the case of RRIRIRPPRLPRPRPRPRSCPRP, the “shrunken log2 fold change” value is reported as 0.16. For RRIRFRPPRLPRPRPRPGKMPRP, the “shrunken log2 fold change” value was -0.0519. With RRIRTRPPRLPRPRPRPVDPPRP the “shrunken log2 fold change” value was -0.175. In the case of RRIRQRPPRLPRPRPRPSHSPRP, the “shrunken log2 fold change” value is reported as -0.102. For RRIRQRPPRLPRPRPRPSWMPRP, the “shrunken log2 fold change” value was -0.0569. RRIRIRPPRLPRPRPRPFTRPRP was tested, and the “shrunken log2 fold change” value was 0.114. With RRIRIRPPRLPRPRPRPLPAPRP the “shrunken log2 fold change” value was 0.041. In the case of RRIRPRPPRLPRPRPRPHEMPRP, the “shrunken log2 fold change” value is reported as -0.142. With RRIRGRPPRLPRPRPRPYDTPRP the “shrunken log2 fold change” value was -0.0956.
